Experimental data from US20180194839A1 (Novartis, published 2018).

Assays:
[1] = biological target: T1, recombinant human IL-12 (R&D Systems Cat#219-IL-005/CF) (human, UniProt P29459 23-219; P29460 23-328); experiment: ELISA, coated cytokine;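 note: antibodies incubated 3 h at room temperature on cytokine-coated plates, binding read out with alkaline phosphatase-conjugated anti-species IgG secondary antibodies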
T1 construct: also called huIL-12
T1 sequence (looked up) 1: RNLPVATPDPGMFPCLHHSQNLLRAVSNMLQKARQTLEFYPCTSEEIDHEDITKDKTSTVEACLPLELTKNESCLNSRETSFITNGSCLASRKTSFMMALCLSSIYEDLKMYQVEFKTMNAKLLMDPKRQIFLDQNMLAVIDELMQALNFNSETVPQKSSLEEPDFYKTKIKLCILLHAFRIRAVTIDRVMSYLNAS
T1 sequence (looked up) 2: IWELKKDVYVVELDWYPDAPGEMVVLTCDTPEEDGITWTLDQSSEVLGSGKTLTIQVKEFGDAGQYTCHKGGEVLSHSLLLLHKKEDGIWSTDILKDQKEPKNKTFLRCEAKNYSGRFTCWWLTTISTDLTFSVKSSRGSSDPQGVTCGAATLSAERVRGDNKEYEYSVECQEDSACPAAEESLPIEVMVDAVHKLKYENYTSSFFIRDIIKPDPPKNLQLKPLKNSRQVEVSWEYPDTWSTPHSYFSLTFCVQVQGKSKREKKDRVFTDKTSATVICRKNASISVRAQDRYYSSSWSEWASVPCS

[2] = biological target: T2, recombinant human IL-17F (SEQ ID NO: 77) (human, UniProt Q96PD4 31-163); experiment: ELISA, coated cytokine, Ab 10 µg/ml;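 note: antibodies incubated 3 h at room temperature on the coated wells, binding detected with alkaline phosphatase-conjugated anti-IgG secondary antibodies matching the species of each test antibody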
T2 construct: homodimer; also called huIL-17F; rhuIL-17F
T2 sequence: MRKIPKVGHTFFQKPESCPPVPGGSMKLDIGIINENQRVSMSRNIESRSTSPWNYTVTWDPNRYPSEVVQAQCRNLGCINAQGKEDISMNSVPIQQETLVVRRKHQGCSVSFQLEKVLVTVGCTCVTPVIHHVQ

B1: XAB4 (antibody, human IgG1, kappa, V domains shown)
VH: EVQLVESGGDLVQPGGSLRLSCAASGFTFSSYWMSWVRQAPGKGLEWVANIKQDGSEKYYVDSVKGRFTISRDNAKNSLYLQMNSLRAEDTAVYYCARDRGSLYYWGQGTLVTVSS
VL: AIQLTQSPSSLSASVGDRVTITCRPSQGINWELAWYQQKPGKAPKLLIYDASSLEQGVPSRFSGSGSGTDFTLTISSLQPEDFATYYCQQFNSYPLTFGGGTKVEIKR
notes: also called MB435 N56Q
With B1 the binding result [1] was “no binding (tested: 10 µg/ml)” and the O.D. [2] was 0.035 O.D.
